Measurements: patent publication US20030181404A1 (BETH ISRAEL DEACONESS MEDICAL CENTER, published 2003)

What was measured:
ErbB-4 = biological target: T1, ErbB-4 (human (human breast cancer cell line), UniProt Q15303 26-1308, limits assumed); assay: co-immunoprecipitation from HRG-stimulated Flag-CHK MCF-7 lysates
T1 construct: also called p180 ErbB-4

[1] = biological target: EGF receptor (EGF-R, ErbB-1) (human (human breast cancer cell lines), UniProt P00533 25-1210); assay: co-immunoprecipitation with anti-CHK antibodies from EGF-stimulated Flag-CHK MCF-7 lysates, immunoblot
ErbB-3 = biological target: T2, ErbB-3 (human (human breast cancer cell line), UniProt P21860 20-1342, tyrosine-phosphorylated upon HRG stimulation (sites not given)); assay: co-immunoprecipitation with anti-CHK antibody from HRG-stimulated Flag-CHK MCF-7 lysates, anti-ErbB-3 immunoblot
T2 construct: also called p180 ErbB-3
T2 sequence (P21860 20-1342 limits assumed): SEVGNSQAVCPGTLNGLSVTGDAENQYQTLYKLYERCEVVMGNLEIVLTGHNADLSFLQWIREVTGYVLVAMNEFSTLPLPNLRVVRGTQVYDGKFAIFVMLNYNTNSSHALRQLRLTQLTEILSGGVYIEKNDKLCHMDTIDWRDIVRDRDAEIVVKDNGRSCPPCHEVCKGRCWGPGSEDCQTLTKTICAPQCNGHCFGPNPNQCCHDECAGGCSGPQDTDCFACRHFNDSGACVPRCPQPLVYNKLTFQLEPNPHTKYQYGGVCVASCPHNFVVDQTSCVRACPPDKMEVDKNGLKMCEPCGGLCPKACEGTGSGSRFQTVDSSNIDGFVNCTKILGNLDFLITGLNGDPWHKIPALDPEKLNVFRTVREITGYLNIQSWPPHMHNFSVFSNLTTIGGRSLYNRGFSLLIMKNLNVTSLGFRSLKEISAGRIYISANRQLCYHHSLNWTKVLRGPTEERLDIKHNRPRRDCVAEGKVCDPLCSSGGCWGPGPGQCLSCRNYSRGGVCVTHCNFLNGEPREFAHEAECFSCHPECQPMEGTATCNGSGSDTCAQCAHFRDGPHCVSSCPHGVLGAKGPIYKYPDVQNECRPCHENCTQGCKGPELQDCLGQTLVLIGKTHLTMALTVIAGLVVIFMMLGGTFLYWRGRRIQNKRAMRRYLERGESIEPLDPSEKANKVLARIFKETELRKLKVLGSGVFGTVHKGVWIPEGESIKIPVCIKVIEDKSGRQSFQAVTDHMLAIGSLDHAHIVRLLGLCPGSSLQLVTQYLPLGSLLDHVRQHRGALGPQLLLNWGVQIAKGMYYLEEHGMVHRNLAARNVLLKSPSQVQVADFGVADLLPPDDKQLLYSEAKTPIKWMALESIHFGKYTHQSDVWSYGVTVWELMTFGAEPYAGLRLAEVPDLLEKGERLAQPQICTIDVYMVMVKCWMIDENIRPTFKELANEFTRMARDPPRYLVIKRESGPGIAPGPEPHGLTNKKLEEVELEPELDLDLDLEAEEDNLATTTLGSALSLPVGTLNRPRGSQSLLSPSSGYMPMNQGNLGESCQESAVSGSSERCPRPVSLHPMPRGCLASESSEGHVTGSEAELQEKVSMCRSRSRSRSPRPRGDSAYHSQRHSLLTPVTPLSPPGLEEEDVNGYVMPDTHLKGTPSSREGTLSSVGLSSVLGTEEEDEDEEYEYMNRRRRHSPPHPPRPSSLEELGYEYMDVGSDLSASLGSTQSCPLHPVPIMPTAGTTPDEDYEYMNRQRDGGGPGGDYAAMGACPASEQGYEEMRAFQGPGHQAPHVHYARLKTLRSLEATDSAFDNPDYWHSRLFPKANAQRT

T1 sequence (Q15303 26-1308 limits assumed): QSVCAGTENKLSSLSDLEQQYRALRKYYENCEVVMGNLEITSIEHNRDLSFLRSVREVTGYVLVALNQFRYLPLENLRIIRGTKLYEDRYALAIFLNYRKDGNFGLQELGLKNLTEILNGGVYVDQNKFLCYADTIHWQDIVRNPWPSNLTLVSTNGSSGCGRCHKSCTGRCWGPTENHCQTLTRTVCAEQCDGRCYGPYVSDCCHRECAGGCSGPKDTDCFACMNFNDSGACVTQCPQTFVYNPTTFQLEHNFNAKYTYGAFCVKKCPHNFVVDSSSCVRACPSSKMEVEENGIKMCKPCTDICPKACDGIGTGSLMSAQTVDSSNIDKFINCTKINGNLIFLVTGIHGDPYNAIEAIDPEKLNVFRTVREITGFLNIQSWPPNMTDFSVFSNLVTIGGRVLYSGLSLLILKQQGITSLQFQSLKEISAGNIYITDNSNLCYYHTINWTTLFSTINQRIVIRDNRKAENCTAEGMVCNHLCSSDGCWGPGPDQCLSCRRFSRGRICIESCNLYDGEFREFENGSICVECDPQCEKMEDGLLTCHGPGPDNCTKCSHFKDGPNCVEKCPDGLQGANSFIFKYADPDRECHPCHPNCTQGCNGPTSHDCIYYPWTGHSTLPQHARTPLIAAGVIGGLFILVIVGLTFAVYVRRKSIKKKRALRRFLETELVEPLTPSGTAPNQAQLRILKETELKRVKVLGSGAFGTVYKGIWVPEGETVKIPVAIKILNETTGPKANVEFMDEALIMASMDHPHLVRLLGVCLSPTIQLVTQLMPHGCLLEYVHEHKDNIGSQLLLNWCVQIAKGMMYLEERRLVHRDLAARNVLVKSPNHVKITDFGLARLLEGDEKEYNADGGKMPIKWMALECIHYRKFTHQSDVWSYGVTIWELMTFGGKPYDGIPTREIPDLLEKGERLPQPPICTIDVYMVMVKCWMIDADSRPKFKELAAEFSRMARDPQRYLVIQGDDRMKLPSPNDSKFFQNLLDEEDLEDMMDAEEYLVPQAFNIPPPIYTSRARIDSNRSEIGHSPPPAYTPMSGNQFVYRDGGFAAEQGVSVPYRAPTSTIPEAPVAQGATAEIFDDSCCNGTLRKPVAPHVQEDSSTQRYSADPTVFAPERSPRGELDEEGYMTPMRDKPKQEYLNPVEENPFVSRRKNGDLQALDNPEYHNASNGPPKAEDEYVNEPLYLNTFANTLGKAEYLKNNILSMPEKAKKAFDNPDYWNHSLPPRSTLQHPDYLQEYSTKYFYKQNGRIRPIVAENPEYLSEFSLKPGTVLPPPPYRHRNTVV

binding result (ErbB-4): no binding | binding result [1]: no binding | binding result (ErbB-3): no binding
B1: Flag-CHK (Flag epitope-tagged CHK expressed in MCF-7 cells from pCDNA3 neo) (enzyme)
chain: DYKDDDDKMAGRGSLVSWRAFHGCDSAEELPRVSPRFLRAWHPPPVSARMPTRRWAPGTQCITKCEHTRPKPGELAFRKGDVVTILEACENKSWYRVKHHTSGQEGLLAAGALRDGEALSADPKLSLMPWFHGKISGQEAVQQLQPPEDGLFLVRESARHPGDYVLCVSFGRDVIHYRVLHRDGHLTIDEAVFFCNLMDMVEHYSKDKGAICTKLVRPKRKHGTKSAEEELARAGWLLNLQHLTLGAQIGEGEFGAVLQGEYLGQKVAVKNIKCDVTAQAFLDETAVMTKMQHENLVRLLGVILHQGLYIVMEHVSKGNLVNFLRTRGRALVNTAQLLQFSLHVAEGMEYLESKKLVHRDLAARNILVSEDLVAKVSDFGLAKAERKGLDSSRLPVKWTAPEALKHGFTSKSDVWSFGVLLWEVFSYGRAPYPKMSLKEVSEAVEKGYRMEPPEGCPGPVHVLMSSCWEAEPPAGHPSANWPRSWPGSYAVQVPQPPSQGRTPTVHLAPKPGALTPPGGPWPQRTERVESAAWGH
notes: An initiator Met stands before the Flag tag; also called intact CHK
